Target: Factor X, P00742
Sequence (P00742 whole entry, looked up): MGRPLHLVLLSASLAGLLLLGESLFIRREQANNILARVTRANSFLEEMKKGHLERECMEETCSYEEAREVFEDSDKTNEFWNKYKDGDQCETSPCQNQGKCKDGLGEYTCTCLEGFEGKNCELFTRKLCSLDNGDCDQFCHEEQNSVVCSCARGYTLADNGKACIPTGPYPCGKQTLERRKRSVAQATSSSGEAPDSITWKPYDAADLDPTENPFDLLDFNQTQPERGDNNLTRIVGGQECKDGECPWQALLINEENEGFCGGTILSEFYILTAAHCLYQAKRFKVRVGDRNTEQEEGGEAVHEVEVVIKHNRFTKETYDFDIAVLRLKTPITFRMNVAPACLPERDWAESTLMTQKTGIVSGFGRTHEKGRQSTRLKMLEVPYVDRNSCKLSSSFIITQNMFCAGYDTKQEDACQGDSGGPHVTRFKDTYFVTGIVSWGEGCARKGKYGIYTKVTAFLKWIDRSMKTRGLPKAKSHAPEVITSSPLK

B1: Desialylated wild-type Factor VII (dWT VIIa) (protein)
chain 1: ANAFLEELRPGSLERECKEEQCSFEEAREIFKDAERTKLFWISYSDGDQCASSPCQNGGSCKDQLQSYICFCLPAFEGRNCETHKDDQLICVNENGGCEQYCSDHTGTKRSCRCHEGYSLLADGVSCTPTVEYPCGKIPILEKRNASKPQGR
chain 2: IVGGKVCPKGECPWQVLLLVNGAQLCGGTLINTIWVVSAAHCFDKIKNWRNLIAVLGEHDLSEHDGDEQSRRVAQVIIPSTYVPGTTNHDIALLRLHQPVVLTDHVVPLCLPERTFSERTLAFVRFSLVSGWGQLLDRGATALELMVLNVPRLMTQDCLQQSRKVGDSPNITEYMFCAGYSDGSKDSCKGDSGGPHATHYRGTWYLTGIVSWGQGCATVGHFGVYTRVSQYIEWLQKLMRSEPRPGVLLRAPFP
  activation of Factor X (Michaelis Menten kinetics; Factor X titrated in the presence of sTF-Factor VII complexes, 0.5 nM Factor VII, 125 nM sTF), relative to wild-type Factor VII (F7): approximately 2-fold

Reference: patent US20210002624
